{"source": "patent US20170008933A1", "about": "(GlaxoSmithKline, published 2017)", "key": {"human factor H [1]": {"biological_target": "T1, human factor H (human, UniProt P08603 19-1231)", "T1 construct": "Immobilised on the chip in the SPR experiments; also called fH", "T1 sequence (P08603 19-1231 limits assumed)": "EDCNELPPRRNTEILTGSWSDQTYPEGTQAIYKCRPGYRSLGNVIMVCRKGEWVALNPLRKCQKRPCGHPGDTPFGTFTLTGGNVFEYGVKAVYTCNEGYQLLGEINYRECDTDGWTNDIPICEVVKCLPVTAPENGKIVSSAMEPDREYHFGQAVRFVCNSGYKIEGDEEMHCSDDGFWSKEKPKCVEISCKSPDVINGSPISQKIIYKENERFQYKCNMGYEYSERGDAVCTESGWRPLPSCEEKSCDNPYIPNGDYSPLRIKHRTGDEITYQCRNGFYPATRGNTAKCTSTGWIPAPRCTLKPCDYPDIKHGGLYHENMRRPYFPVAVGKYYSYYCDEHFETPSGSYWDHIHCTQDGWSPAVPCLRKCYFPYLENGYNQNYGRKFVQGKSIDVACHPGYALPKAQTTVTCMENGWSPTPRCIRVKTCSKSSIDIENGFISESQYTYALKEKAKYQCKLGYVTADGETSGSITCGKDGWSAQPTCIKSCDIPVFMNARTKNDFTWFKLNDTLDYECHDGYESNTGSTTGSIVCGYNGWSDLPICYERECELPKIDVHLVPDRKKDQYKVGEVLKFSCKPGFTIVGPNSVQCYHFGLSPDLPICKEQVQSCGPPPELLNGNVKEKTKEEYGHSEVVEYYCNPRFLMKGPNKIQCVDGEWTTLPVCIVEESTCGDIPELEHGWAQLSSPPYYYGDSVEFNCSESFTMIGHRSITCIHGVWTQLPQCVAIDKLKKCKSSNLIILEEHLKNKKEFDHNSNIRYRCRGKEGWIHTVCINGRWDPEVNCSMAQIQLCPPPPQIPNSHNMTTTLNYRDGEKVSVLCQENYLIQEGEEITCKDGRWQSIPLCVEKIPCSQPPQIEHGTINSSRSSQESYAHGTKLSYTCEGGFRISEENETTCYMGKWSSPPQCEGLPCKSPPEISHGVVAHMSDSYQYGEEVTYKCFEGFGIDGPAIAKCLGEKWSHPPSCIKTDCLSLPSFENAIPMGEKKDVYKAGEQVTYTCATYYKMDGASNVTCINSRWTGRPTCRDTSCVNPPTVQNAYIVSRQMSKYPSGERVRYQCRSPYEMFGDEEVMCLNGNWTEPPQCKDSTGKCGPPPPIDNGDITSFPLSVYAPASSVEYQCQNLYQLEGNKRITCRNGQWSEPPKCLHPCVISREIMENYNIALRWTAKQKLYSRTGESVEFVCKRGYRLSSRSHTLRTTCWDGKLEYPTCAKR", "assay": "SPR"}, "human factor H [2]": {"biological_target": "T1, human factor H", "assay": "SPR against immobilised fH"}}}
{"binder": "v3 fHbp L149R mutant (L126R of SEQ ID NO: 17) (other, also called v3 equivalent of mutant #4) VAADIGTGLADALTAPLDHKDKGLKSLTLEDSIPQNGTLTLSAQGAEKTFKAGDKDNSLNTGKLKNDKISRFDFVQKIEVDGQTITLASGEFQIYKQNHSAVVALQIEKINNPDKTDSLINQRSFRVSGLGGEHTAFNQLPGGKAEYHGKAFSSDDPNGRLHYSIDFTKKQGYGRIEHLKTLEQNVELAAAELKADEKSHAVILGDTRYGSEEKGTYHLALFGDRAQEIAGSATVKIGEKVHEIGIAGKQ", "values": [{"measurement": "binding result", "setting": "human factor H [1]", "value": "binds"}]}
{"binder": "v3 fHbp S58V mutant (S32V of SEQ ID NO: 17) (other, also called v3 equivalent of mutant #2) VAADIGTGLADALTAPLDHKDKGLKSLTLEDVIPQNGTLTLSAQGAEKTFKAGDKDNSLNTGKLKNDKISRFDFVQKIEVDGQTITLASGEFQIYKQNHSAVVALQIEKINNPDKTDSLINQRSFLVSGLGGEHTAFNQLPGGKAEYHGKAFSSDDPNGRLHYSIDFTKKQGYGRIEHLKTLEQNVELAAAELKADEKSHAVILGDTRYGSEEKGTYHLALFGDRAQEIAGSATVKIGEKVHEIGIAGKQ", "values": [{"measurement": "fold reduction of the SPR peak value against wild-type v3", "setting": "human factor H [1]", "value": "~2", "unit": "fold"}]}
{"binder": "wild-type v2 fHbp (strain 2996) (other, Recombinant purified protein; The exact construct used in SPR is not spelled out; also called v2 w.t) VAADIGAGLADALTAPLDHKDKSLQSLTLDQSVRKNEKLKLAAQGAEKTYGNGDSLNTGKLKNDKVSRFDFIRQIEVDGQLITLESGEFQIYKQDHSAVVALQIEKINNPDKIDSLINQRSFLVSGLGGEHTAFNQLPDGKAEYHGKAFSSDDAGGKLTYTIDFAAKQGHGKIEHLKTPEQNVELAAAELKADEKSHAVILGDTRYGSEEKGTYHLALFGDRAQEIAGSATVKIGEKVHEIGIAGKQ", "values": [{"measurement": "binding result", "setting": "human factor H [2]", "value": "binds"}]}
{"binder": "v2 fHbp mutant #2 (S58V) (other, also called S32V) VAADIGAGLADALTAPLDHKDKSLQSLTLDQVVRKNEKLKLAAQGAEKTYGNGDSLNTGKLKNDKVSRFDFIRQIEVDGQLITLESGEFQIYKQDHSAVVALQIEKINNPDKIDSLINQRSFLVSGLGGEHTAFNQLPDGKAEYHGKAFSSDDAGGKLTYTIDFAAKQGHGKIEHLKTPEQNVELAAAELKADEKSHAVILGDTRYGSEEKGTYHLALFGDRAQEIAGSATVKIGEKVHEIGIAGKQ", "values": [{"measurement": "binding result", "setting": "human factor H [2]", "value": "binds"}]}
{"binder": "v2 fHbp combined mutant #2 + #12 (other, also called mutant #23; S32V + L123-G128 RIGDIA) VAADIGAGLADALTAPLDHKDKSLQSLTLDQVVRKNEKLKLAAQGAEKTYGNGDSLNTGKLKNDKVSRFDFIRQIEVDGQLITLESGEFQIYKQDHSAVVALQIEKINNPDKIDSLINQRSFRIGDIAGEHTAFNQLPDGKAEYHGKAFSSDDAGGKLTYTIDFAAKQGHGKIEHLKTPEQNVELAAAELKADEKSHAVILGDTRYGSEEKGTYHLALFGDRAQEIAGSATVKIGEKVHEIGIAGKQ", "values": [{"measurement": "fold reduction of the SPR peak value", "setting": "human factor H [1]", "value": "~8", "unit": "fold"}]}
{"binder": "v2 fHbp mutant #4 (L149R) (other, also called L123R) VAADIGAGLADALTAPLDHKDKSLQSLTLDQSVRKNEKLKLAAQGAEKTYGNGDSLNTGKLKNDKVSRFDFIRQIEVDGQLITLESGEFQIYKQDHSAVVALQIEKINNPDKIDSLINQRSFRVSGLGGEHTAFNQLPDGKAEYHGKAFSSDDAGGKLTYTIDFAAKQGHGKIEHLKTPEQNVELAAAELKADEKSHAVILGDTRYGSEEKGTYHLALFGDRAQEIAGSATVKIGEKVHEIGIAGKQ", "values": [{"measurement": "binding result", "setting": "human factor H [2]", "value": "binds"}]}
{"binder": "v2 fHbp mutant #3 + 'E313A' (other, also called S32V + L123R + E240A) VAADIGAGLADALTAPLDHKDKSLQSLTLDQVVRKNEKLKLAAQGAEKTYGNGDSLNTGKLKNDKVSRFDFIRQIEVDGQLITLESGEFQIYKQDHSAVVALQIEKINNPDKIDSLINQRSFRVSGLGGEHTAFNQLPDGKAEYHGKAFSSDDAGGKLTYTIDFAAKQGHGKIEHLKTPEQNVELAAAELKADEKSHAVILGDTRYGSEEKGTYHLALFGDRAQEIAGSATVKIGEKVHAIGIAGKQ", "values": [{"measurement": "binding result", "setting": "human factor H [1]", "value": "no binding"}]}
